{
  "source": "paper PMC11890025",
  "system": "SaAREB6-His (Santalum album)",
  "test": "MST",
  "details": "MST: 20 nM labelled SaAREB6, 150 mM NaCl, 20 mM Tris-HCl pH 8.0, 25 C; EMSA: LightShift Chemiluminescent kit, buffer not stated",
  "data": [
    {"substance": "SaCYP736A167 promoter R2 (MST)", "values": [
      {"measurement": "Kd", "result": 24.8, "unit": "µM"}
    ]},
    {"substance": "SaCYP736A167 promoter R1 (MST)", "values": [
      {"measurement": "Kd", "result": 4.81, "unit": "µM"}
    ]}
  ]
}
